# Reference: patent US20140087995A1 (published 2014)
# Numbered stars: 1 amine (or outer) side, 2 acyl side, 3 side chain; on linkers, the order of the positions; unused ones are H or OH. Bridge positions count the residues as written; N and C are the ends. Side chains are listed from the residue outwards. Ends that are not written are not given here. * marks the point of attachment. C20 diacid = O=C(O)CCCCCCCCCCCCCCCCCCC(=O)*; γGlu = O=C(O)[C@H](CCC(=O)[*:2])N[*:1]; AEEA = NCCOCCOCC(=O)O
# How the values were obtained:
# [1] = biological target: T1, human amylin receptor (amylin 3(a) receptor: human calcitonin receptor co-expressed with RAMP-3) (human, UniProt P30988 25-474; O60896 24-148, limits assumed); experiment: cell-based or functional assay
# T1 sequence (looked up) 1: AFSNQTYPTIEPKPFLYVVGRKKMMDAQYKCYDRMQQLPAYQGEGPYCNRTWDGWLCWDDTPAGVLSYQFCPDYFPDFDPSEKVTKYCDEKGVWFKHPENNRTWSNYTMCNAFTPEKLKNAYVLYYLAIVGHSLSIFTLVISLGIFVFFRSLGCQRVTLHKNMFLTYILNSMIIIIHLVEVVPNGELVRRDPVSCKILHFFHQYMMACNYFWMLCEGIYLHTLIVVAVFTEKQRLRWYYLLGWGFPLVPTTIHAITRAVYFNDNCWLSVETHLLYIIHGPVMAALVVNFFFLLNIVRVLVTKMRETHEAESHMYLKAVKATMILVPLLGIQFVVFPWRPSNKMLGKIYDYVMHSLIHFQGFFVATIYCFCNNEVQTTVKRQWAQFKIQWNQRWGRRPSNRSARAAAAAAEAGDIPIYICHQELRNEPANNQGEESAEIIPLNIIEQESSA
# T1 sequence (looked up) 2: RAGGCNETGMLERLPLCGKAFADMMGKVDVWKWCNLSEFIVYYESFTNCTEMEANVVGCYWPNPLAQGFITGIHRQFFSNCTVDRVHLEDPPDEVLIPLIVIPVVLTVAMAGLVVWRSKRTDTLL
# [2] = biological target: T2, human calcitonin receptor (human, UniProt P30988 25-474); experiment: cell-based or functional assay
# T2 sequence (looked up): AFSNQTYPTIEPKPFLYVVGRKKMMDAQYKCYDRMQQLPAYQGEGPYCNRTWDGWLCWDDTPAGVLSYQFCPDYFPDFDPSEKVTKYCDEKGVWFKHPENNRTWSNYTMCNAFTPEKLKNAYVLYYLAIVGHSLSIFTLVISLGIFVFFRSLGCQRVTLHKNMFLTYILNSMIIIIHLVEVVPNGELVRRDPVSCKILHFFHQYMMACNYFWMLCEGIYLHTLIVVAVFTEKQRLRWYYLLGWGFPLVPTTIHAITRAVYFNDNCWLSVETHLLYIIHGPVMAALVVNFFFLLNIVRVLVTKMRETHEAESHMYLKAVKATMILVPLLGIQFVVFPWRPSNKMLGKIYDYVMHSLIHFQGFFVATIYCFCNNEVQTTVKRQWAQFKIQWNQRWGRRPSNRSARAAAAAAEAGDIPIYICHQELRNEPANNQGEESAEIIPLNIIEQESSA
Binder,hAmylin-R funct. EC50 [1] [pM],Ratio hCT/hAmylin funct. (hCTR EC50 against hAmylin-R EC50) [2],hCTR funct. EC50 [2] [pM]
"K([AEEA-C20 diacid])CNTATCATQRLANFLRHSSPNFGAIPSSTNVGSNTY-NH2 (disulfide 2-7; N-terminus assumed; SMILES CC[C@H](C)[C@H](NC(=O)[C@H](C)NC(=O)CNC(=O)[C@H](Cc1ccccc1)NC(=O)[C@H](CC(N)=O)NC(=O)[C@@H]1CCCN1C(=O)[C@H](CO)NC(=O)[C@H](CO)NC(=O)[C@H](Cc1c[nH]cn1)NC(=O)[C@H](CCCNC(=N)N)NC(=O)[C@H](CC(C)C)NC(=O)[C@H](Cc1ccccc1)NC(=O)[C@H](CC(N)=O)NC(=O)[C@H](C)NC(=O)[C@H](CC(C)C)NC(=O)[C@H](CCCNC(=N)N)NC(=O)[C@H](CCC(N)=O)NC(=O)[C@@H](NC(=O)[C@H](C)NC(=O)[C@@H]1CSSC[C@H](NC(=O)[C@@H](N)CCCCNC(=O)COCCOCCNC(=O)CCCCCCCCCCCCCCCCCCC(=O)O)C(=O)N[C@@H](CC(N)=O)C(=O)N[C@@H]([C@@H](C)O)C(=O)N[C@@H](C)C(=O)N[C@@H]([C@@H](C)O)C(=O)N1)[C@@H](C)O)C(=O)N1CCC[C@H]1C(=O)N[C@@H](CO)C(=O)N[C@@H](CO)C(=O)N[C@H](C(=O)N[C@@H](CC(N)=O)C(=O)N[C@H](C(=O)NCC(=O)N[C@@H](CO)C(=O)N[C@@H](CC(N)=O)C(=O)N[C@H](C(=O)N[C@@H](Cc1ccc(O)cc1)C(N)=O)[C@@H](C)O)C(C)C)[C@@H](C)O, also called compound 43) [N^ε1-[2-[2-[2-(19-carboxynonadecanoylamino)ethoxy]ethoxy]acetyl]-[Arg17,Pro21,Pro27]-h-amylin]",141,6.5,920
"K([γGlu-C20 diacid])RCNTATCATQRLANFLRHSSPNFGAIPSSTNVGSHTY-NH2 (disulfide 3-8; N-terminus assumed; SMILES CC[C@H](C)[C@H](NC(=O)[C@H](C)NC(=O)CNC(=O)[C@H](Cc1ccccc1)NC(=O)[C@H](CC(N)=O)NC(=O)[C@@H]1CCCN1C(=O)[C@H](CO)NC(=O)[C@H](CO)NC(=O)[C@H](Cc1c[nH]cn1)NC(=O)[C@H](CCCNC(=N)N)NC(=O)[C@H](CC(C)C)NC(=O)[C@H](Cc1ccccc1)NC(=O)[C@H](CC(N)=O)NC(=O)[C@H](C)NC(=O)[C@H](CC(C)C)NC(=O)[C@H](CCCNC(=N)N)NC(=O)[C@H](CCC(N)=O)NC(=O)[C@@H](NC(=O)[C@H](C)NC(=O)[C@@H]1CSSC[C@H](NC(=O)[C@H](CCCNC(=N)N)NC(=O)[C@@H](N)CCCCNC(=O)CC[C@H](NC(=O)CCCCCCCCCCCCCCCCCCC(=O)O)C(=O)O)C(=O)N[C@@H](CC(N)=O)C(=O)N[C@@H]([C@@H](C)O)C(=O)N[C@@H](C)C(=O)N[C@@H]([C@@H](C)O)C(=O)N1)[C@@H](C)O)C(=O)N1CCC[C@H]1C(=O)N[C@@H](CO)C(=O)N[C@@H](CO)C(=O)N[C@H](C(=O)N[C@@H](CC(N)=O)C(=O)N[C@H](C(=O)NCC(=O)N[C@@H](CO)C(=O)N[C@@H](Cc1c[nH]cn1)C(=O)N[C@H](C(=O)N[C@@H](Cc1ccc(O)cc1)C(N)=O)[C@@H](C)O)C(C)C)[C@@H](C)O, 38 residues: N-terminal extension by Lys (-1K); also called compound 44)",198,24,4750
"K([γGlu-C20 diacid])CNTATCATQRLAHFLRHSSPNFGAIPSSTNVGSHTY-NH2 (disulfide 2-7; N-terminus assumed; SMILES CC[C@H](C)[C@H](NC(=O)[C@H](C)NC(=O)CNC(=O)[C@H](Cc1ccccc1)NC(=O)[C@H](CC(N)=O)NC(=O)[C@@H]1CCCN1C(=O)[C@H](CO)NC(=O)[C@H](CO)NC(=O)[C@H](Cc1c[nH]cn1)NC(=O)[C@H](CCCNC(=N)N)NC(=O)[C@H](CC(C)C)NC(=O)[C@H](Cc1ccccc1)NC(=O)[C@H](Cc1c[nH]cn1)NC(=O)[C@H](C)NC(=O)[C@H](CC(C)C)NC(=O)[C@H](CCCNC(=N)N)NC(=O)[C@H](CCC(N)=O)NC(=O)[C@@H](NC(=O)[C@H](C)NC(=O)[C@@H]1CSSC[C@H](NC(=O)[C@@H](N)CCCCNC(=O)CC[C@H](NC(=O)CCCCCCCCCCCCCCCCCCC(=O)O)C(=O)O)C(=O)N[C@@H](CC(N)=O)C(=O)N[C@@H]([C@@H](C)O)C(=O)N[C@@H](C)C(=O)N[C@@H]([C@@H](C)O)C(=O)N1)[C@@H](C)O)C(=O)N1CCC[C@H]1C(=O)N[C@@H](CO)C(=O)N[C@@H](CO)C(=O)N[C@H](C(=O)N[C@@H](CC(N)=O)C(=O)N[C@H](C(=O)NCC(=O)N[C@@H](CO)C(=O)N[C@@H](Cc1c[nH]cn1)C(=O)N[C@H](C(=O)N[C@@H](Cc1ccc(O)cc1)C(N)=O)[C@@H](C)O)C(C)C)[C@@H](C)O, also called compound 66)",27,20.1,542
"K([γGlu-C20 diacid])CNTATCATQRLAHFLRHSSPNFGAIPSSTPVGSNTY-NH2 (disulfide 2-7; N-terminus assumed; SMILES CC[C@H](C)[C@H](NC(=O)[C@H](C)NC(=O)CNC(=O)[C@H](Cc1ccccc1)NC(=O)[C@H](CC(N)=O)NC(=O)[C@@H]1CCCN1C(=O)[C@H](CO)NC(=O)[C@H](CO)NC(=O)[C@H](Cc1c[nH]cn1)NC(=O)[C@H](CCCNC(=N)N)NC(=O)[C@H](CC(C)C)NC(=O)[C@H](Cc1ccccc1)NC(=O)[C@H](Cc1c[nH]cn1)NC(=O)[C@H](C)NC(=O)[C@H](CC(C)C)NC(=O)[C@H](CCCNC(=N)N)NC(=O)[C@H](CCC(N)=O)NC(=O)[C@@H](NC(=O)[C@H](C)NC(=O)[C@@H]1CSSC[C@H](NC(=O)[C@@H](N)CCCCNC(=O)CC[C@H](NC(=O)CCCCCCCCCCCCCCCCCCC(=O)O)C(=O)O)C(=O)N[C@@H](CC(N)=O)C(=O)N[C@@H]([C@@H](C)O)C(=O)N[C@@H](C)C(=O)N[C@@H]([C@@H](C)O)C(=O)N1)[C@@H](C)O)C(=O)N1CCC[C@H]1C(=O)N[C@@H](CO)C(=O)N[C@@H](CO)C(=O)N[C@H](C(=O)N1CCC[C@H]1C(=O)N[C@H](C(=O)NCC(=O)N[C@@H](CO)C(=O)N[C@@H](CC(N)=O)C(=O)N[C@H](C(=O)N[C@@H](Cc1ccc(O)cc1)C(N)=O)[C@@H](C)O)C(C)C)[C@@H](C)O, also called compound 62)",44,12.3,539
"K([γGlu-C20 diacid])CNTATCATQRLAHFLRHSSPNFGAIPSSTNVGSNTY-NH2 (disulfide 2-7; N-terminus assumed; SMILES CC[C@H](C)[C@H](NC(=O)[C@H](C)NC(=O)CNC(=O)[C@H](Cc1ccccc1)NC(=O)[C@H](CC(N)=O)NC(=O)[C@@H]1CCCN1C(=O)[C@H](CO)NC(=O)[C@H](CO)NC(=O)[C@H](Cc1c[nH]cn1)NC(=O)[C@H](CCCNC(=N)N)NC(=O)[C@H](CC(C)C)NC(=O)[C@H](Cc1ccccc1)NC(=O)[C@H](Cc1c[nH]cn1)NC(=O)[C@H](C)NC(=O)[C@H](CC(C)C)NC(=O)[C@H](CCCNC(=N)N)NC(=O)[C@H](CCC(N)=O)NC(=O)[C@@H](NC(=O)[C@H](C)NC(=O)[C@@H]1CSSC[C@H](NC(=O)[C@@H](N)CCCCNC(=O)CC[C@H](NC(=O)CCCCCCCCCCCCCCCCCCC(=O)O)C(=O)O)C(=O)N[C@@H](CC(N)=O)C(=O)N[C@@H]([C@@H](C)O)C(=O)N[C@@H](C)C(=O)N[C@@H]([C@@H](C)O)C(=O)N1)[C@@H](C)O)C(=O)N1CCC[C@H]1C(=O)N[C@@H](CO)C(=O)N[C@@H](CO)C(=O)N[C@H](C(=O)N[C@@H](CC(N)=O)C(=O)N[C@H](C(=O)NCC(=O)N[C@@H](CO)C(=O)N[C@@H](CC(N)=O)C(=O)N[C@H](C(=O)N[C@@H](Cc1ccc(O)cc1)C(N)=O)[C@@H](C)O)C(C)C)[C@@H](C)O, also called compound 70) [N^ε1-[(4S)-4-carboxy-4-(19-carboxynonadecanoylamino)butanoyl]-[His14,Arg17,Pro21,Pro27]-h-amylin]",40,17.9,715
"KCNTATCATQRLADFLRHSSK([γGlu-γGlu-C20 diacid])NFGAIPSSTNVGSDTY-NH2 (disulfide 2-7; N-terminus assumed; SMILES CC[C@H](C)[C@H](NC(=O)[C@H](C)NC(=O)CNC(=O)[C@H](Cc1ccccc1)NC(=O)[C@H](CC(N)=O)NC(=O)[C@H](CCCCNC(=O)CC[C@H](NC(=O)CC[C@H](NC(=O)CCCCCCCCCCCCCCCCCCC(=O)O)C(=O)O)C(=O)O)NC(=O)[C@H](CO)NC(=O)[C@H](CO)NC(=O)[C@H](Cc1c[nH]cn1)NC(=O)[C@H](CCCNC(=N)N)NC(=O)[C@H](CC(C)C)NC(=O)[C@H](Cc1ccccc1)NC(=O)[C@H](CC(=O)O)NC(=O)[C@H](C)NC(=O)[C@H](CC(C)C)NC(=O)[C@H](CCCNC(=N)N)NC(=O)[C@H](CCC(N)=O)NC(=O)[C@@H](NC(=O)[C@H](C)NC(=O)[C@@H]1CSSC[C@H](NC(=O)[C@@H](N)CCCCN)C(=O)N[C@@H](CC(N)=O)C(=O)N[C@@H]([C@@H](C)O)C(=O)N[C@@H](C)C(=O)N[C@@H]([C@@H](C)O)C(=O)N1)[C@@H](C)O)C(=O)N1CCC[C@H]1C(=O)N[C@@H](CO)C(=O)N[C@@H](CO)C(=O)N[C@H](C(=O)N[C@@H](CC(N)=O)C(=O)N[C@H](C(=O)NCC(=O)N[C@@H](CO)C(=O)N[C@@H](CC(=O)O)C(=O)N[C@H](C(=O)N[C@@H](Cc1ccc(O)cc1)C(N)=O)[C@@H](C)O)C(C)C)[C@@H](C)O, also called compound 59)",389,5,1950
